# From patent US11827911B2, “Chimeric bacteriophage lysin with activity against Staphylococci bacteria” (priority 2008, dated 2023)
# What was measured:
# MRSA strain COL = test: Checkerboard broth-microdilution assay; format: cell-based, Staphylococcus aureus; details: Staphylococcus aureus, read-out: MIC
# From the text: (§1) We used the checkerboard broth-microdilution assay to test the interaction of ClyS with vancomycin and with oxacillin. […] Isobolograms for ClyS with vancomycin and ClyS with oxacillin was plotted by transcribing the enzyme concentrations along the inhibitory line on the microtiter plate in an x/y plot.
# MRSA strain MW2 = test: Systemic MRSA infection model, survival; format: in vivo, FVB/NJ mice; details: 100 μg/mouse of oxacillin alone, 10 days
# Experimental: In order to assess whether ClyS treatment could prevent death resulting from systemic MRSA infections, 4 week old FVB/NJ mice were intraperitoneally injected with ˜5×10^5 CFU of the community-acquired MRSA strain MW2 in 5% mucin. Preliminary experiments determined that 5×10^5 CFU was 10× the LD100 dose for a twenty-four hour period. Furthermore, within 3 hours of IP injection the MRSA infection was systemic. i.e., MRSA were recovered in high numbers from heart, liver, spleen, and kidney (data not shown). Treatment occurred three hours post-infection, with either 20 mM phosphate buffer or 1 mg of ClyS in 20 mM phosphate buffer injected IP (intraperitoneally). Mice were then monitored for survival over ten days. The results from three independent experiments were combined (ClyS treatment, n=16; buffer treatment, n=14) and the mice survival data plotted with a Kaplan Meier Survival curve (FIG. 12), Within twenty-four hours all of the control mice died of bacterial sepsis, while only 2/16 of ClyS treated mice died at forty-eight hours, and the remaining mice (14/16, 88%) survived over the course of the experiments (FIG. 12).
# To determine if this effect could be seen in our systemic MRSA infection model, FVB/NJ mice were intraperitoneally injected with ˜5×10^5 CFUs of the MRSA strain MW2 as above. Three hours post infection mice were treated in parallel, with a lower IP dose of 130 μg/mouse of ClyS combined with different concentrations of oxacillin (10-100 μg/mouse) or buffer alone controls. Preliminary experiments determined that an ED30 dose of ClyS (130 μg/mouse) had minimal efficacy to evaluate the effect of combinatorial treatment with oxacillin (data not shown). Mice were monitored for survival for 10 days and the results of 5 independent experiments were combined and plotted in a Kaplan Meier Survival curve (FIG. 14).
# VISA strain Mu50 = test: Checkerboard broth-microdilution assay; format: cell-based, Staphylococcus aureus; details: Staphylococcus aureus, VISA
# From the text: as §1
# staphylococcal strains = details: by altering peptide cross-bridges; cited from earlier work
# S. aureus = test: Lytic assays of chimeric lysins against S. aureus; format: cell-based, Staphylococcus aureus; details: for lytic/killing activity against S. aureus: qualitative
# From the text: For this, the endopeptidase domain in Twort lysin (14) was used to construct chimera AD 119 (SEQ ID NO:3). […] To overcome low expression of AD 127 construct, the entire chimera gene was cloned into expression vector pJML6 to generate pAD 138.
# [1] = Solubility of expressed lysins and chimeras
# Experimental: In another embodiment, the lysin is a chimeric protein that comprises an endopeptidase domain of the S. aureus Twort lysin upstream of the phiNM3 CWT domain (SEQ ID NO:1). The chimeric polypeptide is preferably sufficiently soluble in phosphate buffered saline (PBS). Preferred levels of solubility in PBS for the chimeric lysins is at least about 1 mg/ml and more preferably at least about 3 mg/mL. in PBS. […] One example of such a lysin is provided in SEQ ID NO:2 (AD127), shown in FIG. 5A and consisting of the Twort lysin endopeptidase domain attached to the phiNM3 CWT domain (SEQ ID NO:1). The isolated polypeptide of SEQ ID NO:2 (AD 127) was constructed by engineering S. epidermidis autolysin amidase and Twort lysin endopeptidase domains upstream of phiNM3 CWT domain, respectively.
# Traditionally, Bacillus-specific lysins are expressed at high levels and are soluble in E. coli. Therefore, our first attempt was to engineer a 16-amino acid peptide (4) that is conserved in several S. aureus-specific lysins (Lu J Z, Fujiwara T, Komatsuzawa H, Sugai M, Sakon J. 2006. Cell wall-targeting domain of glycylglycine endopeptidase distinguishes among peptidoglycan cross-bridges. (Lue et al. (2006) J. Biol. Chem. 281(1):549-58) The catalytic domain of the Bacillus-specific lysin PlyB was used to generate chimera AD 103 (FIG. 4) (SEQ ID NO: 13). The chimeras were tested for expression, solubility and activity. Then the entire C-terminal CWT domain of PlyB (6) was replaced by the putative C-terminal domain of S. aureus phage Twort lysin (8) to obtain AD 105 (SEQ ID NO: 14). […] Since the lysostaphin catalytic domain […] (10) in AD 112 was of bacterial origin, we attempted to engineer a phage-derived catalytic domain upstream of the lysostaphin CWT. For this, the endopeptidase domain in Twort lysin (14) was used to construct chimera AD 119 (SEQ ID NO:3).
Molecule,lytic/killing activity against S. aureus (S. aureus),solubility of the expressed protein [1],other results
"Cc1onc(-c2ccccc2)c1C(=O)N[C@@H]1C(=O)N2[C@@H]1SC(C)(C)[C@@H]2C(=O)O [oxacillin, reference compound]",–,–,MIC (MRSA strain COL): 32 µg/mL; survival (MRSA strain MW2): 35%
"CN[C@H](CC(C)C)C(=O)N[C@H]1C(=O)N[C@@H](CC(N)=O)C(=O)N[C@H]2C(=O)N[C@H]3C(=O)N[C@H](C(=O)N[C@H](C(=O)O)c4cc(O)cc(O)c4-c4cc3ccc4O)[C@H](O)c3ccc(c(Cl)c3)Oc3cc2cc(c3O[C@@H]2O[C@H](CO)[C@@H](O)[C@H](O)[C@H]2O[C@H]2C[C@](C)(N)[C@H](O)[C@H](C)O2)Oc2ccc(cc2Cl)[C@H]1O [vancomycin, reference compound]",–,–,MIC (VISA strain Mu50): 8 µg/mL
lysostaphin: staphylolytic enzyme produced by Staphylococcus simulans,–,–,frequency of developing resistance (staphylococcal strains): 10^−6
"AD 105: PlyB with its C-terminal CWT domain replaced by the putative C-terminal domain of S. aureus phage Twort lysin (protein, Cimeric of Bacillus-specific phage lysin PlyB catalytic domain and Staphylococcus aureus bacteriophage Twort domain) MGYIVDMSKWNGSPDWDTAKGQLDLVIARVQDGSNYVDPVYKDYVAAMKARNIPFGSYAFCRFVSVEDAKVEARDFWNRGDKDSLFWVADVEVTTMSDMRAGTQAFIDELYRLGAKKVGLYVGHHKYEEFGAAQIKCDFTWIPRYGAKPAYPCDLWQYDEYGQVPGIGKCDLNRLNGDKSLDWFTGKGEEAVQWNVNNYGTYYKSESATFKCTARQGIVTRYTGPFTTCPQAGVLYYGQSVTYDTVCKQDGYVWISWTTNGGQDVWMPVRTWDKNTDIMGQLWGDIY",not active,–,–
"AD 126: S. epidermidis autolysin amidase domain upstream of phiNM3 CWT domain (protein, Chimeric of Staphylococcus epidermidis autolysin amidase domain and Staphylococcus aureus phage pniNM3 CWT domain) MVSSQKTSSLPKYTPKVNSSINNYIRKKNMKAPRIEEDYTSYFPKYGYRNGVGRPEGIVVHDTANDNSTIDGEIAFMKRNYTNAFVHAFVDGNRIIETAPTDYLSWGAGPYGNQRFINVEIVHTHDYDSFARSMNNYADYAATQLQYYNLKPDSAENDGRGTVWTHAAISNFLGGTDHADPHQYLRSHNYSYAELYDLIYEKYLIKTKQVAPWGTTSTKPSQPSKPSGGTNNKLTVSANRGVAQIKPTNNGLYTTVYDSKGHKTDQVQKTLSVTKTATLGNNKFYLVEDYNSGKKYGWVKQGDVVYNTAKAPVKVNQTYNVKAGSTLYTVPWGTPKQVASKVSGTGNQTFKATKQQQIDKATYLYGTVNGKSGWISKYYLTTASKPSNPTKPSTNNQLTVTNNSGVAQINAKNSGLYTTVYDTKGKTTNQIQRTLSVTKAATLGDKKFYLVGDYNTGTNYGWVKQDEVIYNTAKSPVKINQTYNVKPGVKLHTVPWGTYNQVAGTVSGKGDQTFKATKQQQIDKATYLYGTVNGKSGWISKYYLLQGLMNKITNKVKPPAQKAVGKSASKITVGSKAPYNLKWSKGAYFNAKIDGLGATSATRYGDNRTNYRFDVGQAVYAPGTLIYVFEIIDGWCRIYWNNHNEWIWHERLIVKEVF",no expression or activity,–,–
"AD 119: Twort lysin endopeptidase domain upstream of the lysostaphin CWT domain (protein, Chimeric of Staphylococcus aureus bacteriophage Twort domain and Staphylococcus simulans metalloendopeptidase Lysostaphin CWT domain) METLKQAESYIKSKVNTGTDFDGLYGYQCMDLAVDYIYHVTDGKIRMWGNAKDAINNSFGGTATVYKNYPAFRPKYGDVVVWTTGNFATYGHIAIVTNPDPYGDLQYVTVLEQNWNGNGIYKTELATIRTHDYTGITHFIRPNFATESSVKKKDTKKKPKPSNRDGLNKDKIVYDRTNINYNMVLQTPNTGWKTNKYGTLYKSESASFTPNTDIITRTTGPFRSMPQSGVLKAGQTIHYDEVMKQDGHVWVGYTGNSGQRIYLPVRTWNKSTNTLGVLWGTIK",did not show significant activity,soluble,–
"AD 112: S. epidermidis autolysin amidase domain upstream of the lysostaphin CWT domain (protein, Chimeric of Staphylococcus epidermidis autolysin amidase domain and Staphylococcus simulans metalloendopeptidase Lysostaphin CWT domain) MVSSQKTSSLPKYTPKVNSSINNYIRKKNMKAPRIEEDYTSYFPKYGYRNGVGRPEGIVVHDTANDNSTIDGEIAFMKRNYTNAFVHAFVDGNRIIETAPTDYLSWGAGPYGNQRFINVEIVHTHDYDSFARSMNNYADYAATQLQYYNLKPDSAENDGRGTVWTHAAISNFLGGTDHADPHQYLRSHNYSYAELYDLIYEKYLIKTKQVAPWGTTSTKPSQPSKPSGGTNNKLTVSANRGVAQIKPTNNGLYTTVYDSKGHKTDQVQKTLSVTKTATLGNNKFYLVEDYNSGKKYGWVKQGDVVYNTAKAPVKVNQTYNVKAGSTLYTVPWGTPKQVASKVSGTGNQTFKATKQQQIDKATYLYGTVNGKSGWISKYYLTTASKPSNPTKPSTNNQLTVAGQTIHYDEVMKQDGHTNNSGVAQINAKNSGLYTTVYDTKGKTTNQIQRTLSVTKAATLGDKKFYLVGDYNTGTNYGWVKQDEVIYNTAKSPVKINQTYNVKPGVKLHTVPWGTYNQVAGTVSGKGDQTFKATKQQQIDKATYLYGTVNGKSGWISKYYLLQTPNTGWKTNKYGTLYKSESASFTPNTDIITRTTGPFRSMPQSGVLKVWVGYTGNSGQRIYLPVRTWNKSTNTLGVLWGTIK",no lytic activity,very soluble,effect on S. aureus cells when exposed (S. aureus): clumped
"AD 107: lysostaphin CWT domain downstream of PlyB-catalytic domain (protein, Chimeric of Bacillus-specific phage lysin PlyB catalytic domain and Staphylococcus simulans metalloendopeptidase Lysostaphin CWT domain) MGYIVDMSKWNGSPDWDTAKGQLDLVIARVQDGSNYVDPVYKDYVAAMKARNIPFGSYAFCRFVSVEDAKVEARDFWNRGDKDSLFWVADVEVTTMSDMRAGTQAFIDELYRLGAKKVGLYVGHHKYEEFGAAQIKCDFTWIPRYGAKPAYPCDLWQYDEYGQVPGIGKCDLNRLNGDKSLDWFTGKGEEAVQLQTPNTGWKTNKYGTLYKSESASFTPNTDIITRTTGPFRSMPQSGVLKAGQTIHYDEVMKQDGHVWVGYTGNSGQRIYLPVRTWNKSTNTLGVLWGTIK",no activity,poor,–
